From a protein production outcome set (Wang et al. 2014)

Experiment: label from the status in PepcDB records
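Note: failed if final PepcDB status was selected cloned or expressed and not failed if soluble or beyond.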

Row | Sequence | protein production
1 | LQSKLSLPKIPNVIECFDISHLSGTATVGSMVQFRGGRPDKHNYRRFKIESVEGIDDFASIAEVVRRRYSRLLEDKHEMPDLIIIDGGKGQLSSAFQELRKLRVKVPIISIAKREEEIYVPGLKSPLPIKKDEKASLFVQEIRDEAHRFAINYNRLLRQKALIQK | failed
2 | MKVFTEKIPNIPWEERPEGYTGPVWRYSKNPIIGRNPVPKGARVFNSAVVPYNGEFVGVFRIDHKNTRPFLHFGRSKDGINWEIEPEEIQWVDVNGEPFQPSYAYDPRVVKIEDTYYITFCTDDHGPTIGVGMTKDFKTFVRLPNAYVPFNRNGVLFPRKINGKYVMLNRPSDNGHTPFGDIFLSESPDMIHWGNHRFVLGRSSYNWWENLKIGAGPYPIETSEGWLLIYHGVTLTCNGYVYSFGAALLDLDDPSKVLYRSRYYLLTPEEEYETVGFVPNVVFPCAALCDADTGRVAIYYGAADTHVALAFGYIDEIVDFVKRNSM | not failed
3 | MLLGVIPVLAILLLGFNIHLLVKERRYKKSWISFSMLGLNGLLFVAFTFFLLVYMAGFVTITTIPPFVYWFLIMLGFIIEGMSLYKKYVPGQMTAAAIHLFVVLPTIFSIGIVLLLVAIIELIVAMMNGTGGHPVPRNKQTTTP | failed
4 | MAAILISLIGKYGMNGIFIATFMAGIFLLLAGIFRLGNLISLIPSPVITGFTSGIAIIIASGQIKNFFGIEHFTGSFFDLMKFISGLHIDYPSTIIGLLTILLMIFYPKSWGKKFPASLLAILLSTLAVLALKLDIPLVGKIPTTLIPQAHLRLTELNPQDMKTLLIPAISITVLGMTESLLCGASAGRATNHPMDNNQELVAQGIGNIFIPFFGGIPATAAIARTSVAIKAGAQTRLTGIIHALILLLSMFLFAPFMTHIPLSALAGVLIMTAVRMNEWEAIRFLFKNKLKSGIIEFFVTMIITVIFDLSTAILAGIVVGFLLFIVKISQIEINSSQIEPERISQNHHEVFTDWTVIYISGPLFFLNSSKLKQAIDELPANTNAVLSLRGVPMIDVTSIKLLIDIYSIFHKEERQIVFASMNPKLKESFKRTGLISMVGEEAIYPSVNEFLLDLVDKNK | failed
5 | MTGRLVLAATPMGDVGDASPRLRTALGTADVVAAEDTRRTKALASALDVTITGKVVSFYDQVETARLPALVADVASGKTVLLVTDAGMPSVSDPGYRLVSACVAEDLAVTCLPG | failed
6 | MKTLYDLPIVLRNLPEDLVLEKPLPEVSVTIRAYPEILNNLTKEQISLWIDATGKAVGEHTVKIYWQLPAGIEMVSIPDVTYTLKAKEDPLEHHHHHH | failed
7 | MPKKDNFSILLMGIDARPGQSMDKERSDAMVLATFNRKDKSVKLLSIPRDSYVNIPGRGYDKITHAHSLGGRDLSTETVENLLDIPVDYVMEANFSAFKEVVDELGGVPITIKEDYIVRQIKKDTKGKVNLQTGEQTLGGEEALAYVRTRKADTDLKRGERQMEVIKSIINKSKSLTSIPAYDDILDTVGKNVSMNLSLNDAIGLIPFMTSIQTVDTLQLKGSDYQPGKVYYFQLDQENLNEIKQELKQQLDVLEHHHHHH | not failed
8 | MSIRLKTALLSGILLAILVSGLGGVLWTVVRPGFQDIERARAADHMTALLAAISADIDSIGTFILSYSSWDETYAFVRTGDPTYVANNLAVEGAKNAQSHFALVLTPKGRTVFSRLWNDDFTATLPPPDAAGGGLPANHPLMAALSHPEGVRGLLQTPRGPLAVAARPILPSNEHGPPRGVLVFGRWLTHALSDHPPLPHLSPLRLWLAPAPGDAPENVRRLLAADGPDLEIDGIGEPTSLVTAGIRLVDLEGAPVAALTTTLAKTVEPQGESIIRLALVIAALGSLGVVAVGLVSNHLMIVAPLRRLESHITTLSRTGDLDTRLVLDRKDEIGLLARAFATMQGRIRHLAHYDPLTGLPNRTLFTMLGEGALARRRADRNGGGRRVGVAILDLDRLNTLTIGLGQGGSERALVAVGRRLAALAGPADVVARGGDGRFLVLLGDLAPAQAGSIVEREAAERLASAFAKPFTPDDLVGAPLSLTASIGLALFPQDGETLETLVTHAEVAVHQAKLLGRNNFQFFDDTLNRQAREILALESALYEALADNTLSLCFQPRIDAVRGHAIELKALARWDHPSRDLIVLEDVLPLIKQDGLLAEIDRWMSNAACRQIRQWRDQGVSFPPIAIALSARPLTAGDPGLAPIAEAIAANGVDPGDLAVEIAQSAIKGQFPETKAPETQAPEDRPAEELPWPDGLAGLGLGLVIDVADAGVVSPALLRRFPLTRLTIGAALVAKLPDCRESRALVRALIALADELDLECLAEGVERGDQADWLLAAGCRLQQGLFHARPQDQTVILRWLGQTPPRGLSSPGPRDRKQDGV | failed
9 | MAETNTATSAVNAQITDAVTQVNTKVVGETPAMAMGNLLMSTSHALSNTAHNATAAQQQGQITMQAATVQGVNSLMSVSSAVIGRSSEEVIEKG | failed
10 | MDQKEAPSFTEASVHDPSVIKVEDTFYVFGSHLAAAKTEDLRNWTQIATHVHEGNPLIPNVFVELAEAFEWANSNTLWAADVIQLEDGRFYMYYNACQGDAPRSALGVAVADDIEGPYENLGVFLKSGMWGEESPDGTIYDANVHPNAIDPHVFFDEEGKLWMVYGSYSGGIFILEMDPDTGFPLPGQGYGTHLMGGNHSRIEAPYIHYDKETEYYYLYVTFGGLDSTGGYNMRVARSKQPDGPYVDGEGHLMSEVRGAPGTLFDDASIEPYGVKQMGNFLFKRELGERGTGYVSPGHNSVYYDDEVDKIFLFFHTRFPERGEAHEIRVHQMFMNRKGWPVIAPYRYLEHHHHHH | failed
11 | MITFIIHSVSAETASESLLSKLAEAKDYLRIQPSVSSRILKKHLANIGQLTINDQLSWHQNLLRASIALNDLNQVEKTVKVMLSYPELEKKTDKFVSLLSSLGIFLRRTGHPNESILLFNCGLEQPIKNGKQKISLLISKGSSLSSLNKYSQAKTTYAQALQLAKQQNSEVLISAIYNTLGIMALKQGNYTLAKEYLVNALQLSQKISRRSGQIVAGLQLLRLSILSDEPMLYDRLHYRISRLTLVSESEVRHAYLFWLEKAHKASKGNKLSAQEQDELLSKLDQIKPISVSLYNQLVETLAEPMGITSLALINESSEYQGDLLNNIHQCKNIE | failed
12 | TVVRYNPDNHADESFAARPALLWVHGMTDYFFHTEFAEFFHNAGFAVYGIDLRKCGRSYRPGQQWHYTSDLAHYFPDLTAAAEVISSTHPELVPVAHSTGGLIVPLWMSQMRTSNPAAIEKIPALVLNSPWLDMMYPPLFIKLITPMVRVLGKRSPTTIIPGGGLGAYGKSIHKNFYGEWDFDTTIKPVEGHKKSIGWLRAVMAGQAEIHHDHVNVGVDVLTLCSNKSWLKSEYTEDTNTSDAVLDVKHIQKWAPHLSSPSSRVDVEIIDNARHDIFLSRKPARDHASEVLNNWLQSK | failed
13 | MEQADVTSLIPILITLFLALTTRNVVVGLFAGVVSGVAMLEGTFVEKGPLDSFSALMKSYLLPQLTDSYNAGVILLLVFIGGFVALMEKSGGGVAFAKKVTQWVASKCQAQLSAWFGGVVIFFSDLGTPLIVGPVFRPLFDKLKVSRQKLAFIIDSTSSPVAILIPFIGWGVYIMGLIQKEFTALNVSMSDWDAFIGAIPYQFYAFLAIAIVPIVSFFKLDFGPMAKAEQLAEQGSDFGKEQESMNVFTHKNAKSSFVWAPLLVMLVVLCTILVPHGFPFQKVAGSTFRAALSSAYFFAAFTLIALMAFYGVRKLSDGIQVYLKGMSNMMSVAVILVLAWALSSVGKELGAAAYIAEQAQAGFPYWLLPAVAFLLAGIISFATGSSWGTFAIMMPLVIPTAVAIDAPLLVCIGAVLSGGLFGDHCSPISETTILSSTGAGCEQYEHFRTQLPYAVLNGVIALVCFLLAGVAASPVIVLAAIVAQFAIYYVLSKQKPTEQLESVSAE | failed
14 | MNTPHGPLEYSLNSPFKAKGRFGRLSFAAWSFVSTLAIIGMLLVISVVFGALASDSNAIQIFGSLLLIAIYVTFLVFSVIFIIRRLHDRNHNGWFAILFFIPIINLIFIIYLLCAKGDIETNRFGAPRATPSWERVMGWIYIVLMPIVVILGVSSDAMMAYQRYTLHSKQVSDVSQMIQPVSTHNNRLS | failed
15 | FKVRVGEPGQAGNPALVSAYGTGLEGGTTGIQSEFFINTTRAGPGTLSVTIEGPSKVKMDCQETPEGYKVMYTPMAPGNYLISVKYGGPNHIVGSPFKAKVTGQRLVSPGSANETSSI | not failed
16 | MKRYRTLLFDVDDTILDFQAAEALALRLLFEDQNIPLTNDMKAQYKTINQGLWRAFEEGKMTRDEVVNTRFSALLKEYGYEADGALLEQKYRRFLEEGHQLIDGAFDLISNLQQQFDLYIVTNGVSHTQYKRLRDSGLFPFFKDIFVSEDTGFQKPMKEYFNYVFERIPQFSAEHTLIIGDSLTADIKGGQLAGLDTCWMNPDMKPNVPEIIPTYEIRKLEELYHILN | not failed
17 | MIPLVSIIVPMYNVEPFIEECIDSLLRQTLSDIEIILVNDGTPDRSGEIAEDYAKRDARIRVIHQANGGLSSARNTGIKAARGTYIGFVDGDDYVSSAMFQRLTEEAEQNQLDIVGCGFYKQSSDRRTYVPPQLEANRVLTKPEMTEQLKHAHETRFIWYVWRYLYRRELFERANLLFDEDIRFAEDSPFNLSAFREAERVKMLDEGLYIYRENPNSLTEIPYKPAMDEHLQKQYQAKIAFYNHYGLAGACKEDLNVYICRHQLPMLLANACASPNSPKDIKKKIRQILSYDMVRQAVRHTPFQHEKLLRGERLVLALCKWRLTFLIKLFFEQRGTMKGSAKQALEHHHHHH | failed
18 | MDLKGGESMVDWKLMQEIIEAPGVSGYEHLGIRDIVVDVLKEVADEVKVDKLGNVIAHFKGSSPRIMVAAHMDKIGVMVNHIDKDGYLHIVPIGGVLPETLVAQRIRFFTEKGERYGVVGVLPPHLRRGQEDKGSKIDWDQIVVDVGASSKEEAEEMGFRVGTVGEFAPNFTRLNEHRFATPYLDDRICLYAMIEAARQLGDHEADIYIVGSVQEEVGLRGARVASYAINPEVGIAMDVTFAKQPHDKGKIVPELGKGPVMDVGPNINPKLRAFADEVAKKYEIPLQVEPSPRPTGTDANVMQINREGVATAVLSIPIRYMHSQVELADARDVDNTIKLAKALLEELKPMDFTP | not failed
19 | MTGCSHRFYYSHMIQTSVRSFEVGEDLASMAVDERISLLRSRMQSISKSGDFSLDYNCKTADKNIIPLSDPLSHVLPWGGLPRGMIVESTITPLLAILFIAQVSGSGRRVGVVGWPDLNYAGVLGYGGCYERIFAVPQQERTSLRVVTALAHGCDLVITRAGPTPRTYTPLQTQRFRNSLRSDAGCVIMMGDHVVSPAARLASAVVGYHGIGKGTGRIKAVEITVTGIAKGFYRTSRVIVGKHIAPAAEKTTMKVVLEHHHHHH | not failed
20 | MQGIGEGVRRAFPIVLGYVPVGFAFGVLALKSGIPAWGALAMSLFVFAGSGQLIAVGLIGGGAPLASVVLTTFVVNLRHLLMSAALAPRLRDWGLLRQALFSAEMTDETFAVHVSTLRGEADDPSRAAVFACNVTAHAAWVGGSALGVFCSTLVADVRPLGLDYALAAMFIALLLPQCRSRAHLFAALVAGACSVGFALSGAGRWNVMLATVCAATLVSLLPVGKTSTTREEMGTPGGEGGAHAD | failed
21 | ALKLMQYIGDAIGTIRDPQELFRTVTDKLRLLFAFDSAVIITIDRERREASVFFEMLRFELPEQLRHQTRSIAGTWLEGHLDDRTVTVASIARDIPSFGADGAPLLWTLHELGMRQIVLSPLRSGGRVIGFLSFVSAEEKLWSDGDKSLLSGVSSSIAIAVSNALAYEELRQRE | not failed
22 | LNSSYVNGNTAGNLYNAGLFCESDGEVFFSNTNDNGRLYAMNIDGSNIHKLSNDTAMYINADKNYVYYVRNNNQKITSQTFFSYDRNSLCRIKRNGHGSTVLDPDPCIYASLIGNYIYYLHYDTQTATSLYRIRIDGEEKKKIKNHYLFTCNTSDRYFYYNNPKNGQLYRYDTASQSEALFYDCNCYKPVVLDDTNVYYMDVNRDNAIVHVNINNPNPVVLTEANIEHYNVYGSLIFYQRGGDNPALCVVKNDGTGFKELAKGEFCNINVTSQYVYFTDFVSNKEYCTSTQNPDTIKALQP | not failed
